The record followed here is the supplement of paper PMC12042874.

± gives the uncertainty stated by the source.

The nature of this data set: amyloid nucleation score (Sup35N fusion, yeast selection) (log enrichment); library NNK2; higher = more nucleation; inactive = no reads after selection. The method, boiled down: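 In psi-negative yeast, Sup35N fusions carrying peptides of 20 random codons were induced with 100 μM copper sulfate for 24 hours. The cells then grew 7 days at 30°C on medium lacking adenine and uracil, and plasmid inserts from input and output were Illumina-sequenced, excluding sequences with under 100 input reads. Nucleation score is the DiMSum log enrichment of output over input reads, centred on the mode score of non-aggregating sequences.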
As for VDVNVHIAGIWLWFYLWRYV, the amyloid nucleation score was -0.768 ± 1.1. Then VDWRNFIGLLNLTDCSDRYH, with -0.744 ± 0.34. To VDYVGSYTVSEDREENLAKP belongs 3.75 ± 0.096. Regarding VDYYDIQCL, the amyloid nucleation score is 0.649 ± 0.36.

In the case of VEAWGP, the amyloid nucleation score is -0.948 ± 0.45. Take VEFNNAFNNCSLLFSDPRSS: the amyloid nucleation score was determined as 3.34 ± 0.12. Then VEMSEDEPCLWYGSLIPGTR, with 2.83 ± 0.18. Then VERRVGEVRFIDAGVFGLGY, with “inactive”; and VERVPGCTRTRTFWLNSSDW, with 0.591 ± 0.25.

Consider VETMY, for which the amyloid nucleation score worked out at 1.24 ± 0.43. To VEVYTVSSYVDYVYPDCRGV belongs 0.418 ± 0.62; to VFEVDLFWRSKFNSCLLPFR, -0.95 ± 0.36. Then VFGYTSRR, with 3.49 ± 0.057; and VFIMRISCY, with -0.424 ± 1.1; and VFLAPRMF, with -0.864 ± 0.45. In turn, VFLVCYTYLWTFKSCTYFMN showed an amyloid nucleation score of -1.88 ± 0.78.

In turn, VFLYAYYLNI displayed an amyloid nucleation score of 0.039 ± 0.77.

The substance VFTYLSSDFYTGWTMVNHIM displayed an amyloid nucleation score of -0.357 ± 0.21. Then VFYNAASDFLAILQEFTSSH, with “inactive”. Then VGAMLKWLT, with 0.378 ± 0.23; and VGDCITAWRSWNNCFVGYGP, with 3.2 ± 0.053; and VGFRSSCMVTSLIY, with -1.64 ± 0.44.

Substance VGFSNGLDFDAVFNMKCQQW displayed an amyloid nucleation score of -0.965 ± 0.41. To VGGFRGRVTSHSPMRMCIQR belongs -0.114 ± 1.

As for VGGGVHGEFGHHYCPSVLGL, the amyloid nucleation score was 1.81 ± 0.2. To VGGLFYLLLMG belongs -0.865 ± 0.53; to VGGYLAICNGLSSLCLDPG, -0.59 ± 1.1. Then VGIFLKSYV, with -1.32 ± 1; and VGKMVNVDGRSPSCWSVWH, with 0.47 ± 0.13. Then VGNIGPT, with 0.338 ± 0.46; and VGRVHSLSDYCDFGKSWFKY, with -0.864 ± 0.74; and VGSSHQSLEATKWGVVVLCR, with 6.569 ± 0.049. VGVVVNFRASGPGFE registered an amyloid nucleation score of 8.288 ± 0.061. To VGVWTALTPCKVVFTSDRLS belongs 1.23 ± 0.4. Then VGYSEMGVADLGHGGW, with 1.15 ± 0.31; and VHDFTRNRKWWDNLWSDRSM, with 0.399 ± 0.47. To VHDQIPE belongs 0.071 ± 0.79; to VHELCTYNLFEPVCSLVWYR, 9.545 ± 0.05; to VHGRGNLKA, 0.032 ± 0.33. As to VHPSDGAGLYS, the amyloid nucleation score is -1.34 ± 0.78.

On to VHRSLSLFSFKSSECRPS, for which the amyloid nucleation score was 6.456 ± 0.064. With VHRTEVRLLSQGTRYVSCNS, the amyloid nucleation score worked out at 2.06 ± 0.3. Then VHVRGACCHGCRARNVSGHP, with 1.05 ± 0.19; and VICFAMSMILR, with 3.38 ± 0.13. To VIGRYIDYC belongs -0.13 ± 0.27; to VIKTFVILDVYAGLSCQC, 1.25 ± 0.34; to VILNYSRY, 4.5 ± 0.078. Then VIMMSNNSERYYVEQIFVSG, with 0.09 ± 0.41; and VINLGGSE, with 0.406 ± 0.38. The substance VIPFISIRLCAAVRVFVPQS displayed an amyloid nucleation score of 5.04 ± 0.075. To VISNHPETTDTNRVLLYVLG belongs 0.411 ± 0.53; to VISYMFRSTGVFNT, 2.73 ± 0.19; to VIVGSLRCHFSLVAWVKC, 0.651 ± 0.51. Then VKALNKLGAKINLMIRFVRS, with -0.306 ± 0.39; and VKCKRCSASSFAIYVEYCCT, with 0.138 ± 0.17. In turn, VKEYYSTGSTWRLYWMWSDW returned an amyloid nucleation score of 0.282 ± 0.36.

Substance VKLMY displayed an amyloid nucleation score of -1.12 ± 0.62. Then VKNFYVNIFQCGIPPPFKEM, with 7.668 ± 0.026. Then VKSTSFPTWMISMIGQRTAH, with -0.711 ± 1.1; and VKVGSSTRRGSGVPSGPKLG, with 1.04 ± 0.52.

Regarding VKVPYMLARGLDQKGTRRWQ, the amyloid nucleation score came out at 8.102 ± 0.064. As to VLAARVTTYHLCVSEDVVTL, the amyloid nucleation score worked out at 2.9 ± 0.15. The substance VLCRRHSN showed an amyloid nucleation score of 1.41 ± 0.38. Then VLCTYRGLDITL, with 0.166 ± 0.21; and VLDSAYCAFVYFFIVVIWWF, with -0.595 ± 0.61; and VLDYSTHIEFGQRRVVGFAR, with -0.321 ± 1. Consider VLFDGKPMEVFFWCLPEWVF, for which the amyloid nucleation score entry is “inactive”.

The substance VLFSHQDEGLWHIHVHF returned an amyloid nucleation score of 3.28 ± 0.052. To VLGGPTVRLSWFPSSGLACY belongs 0.23 ± 0.65; to VLGWCCLVLSILLKCEKVGL, -0.095 ± 1.1; to VLILDVVYSLDESEVSVVWY, -0.429 ± 0.42. Then VLIVFNNPCFMGWALVDVVL, with 8.194 ± 0.053; and VLLFLSMEVLNRNGMKVPVM, with 2.17 ± 0.16; and VLNGRTEWTKQVDFIYFITD, with -0.464 ± 1.1. To VLPGVSFFTYRFKKF belongs “inactive”; to VLRRIVMMLSIS, -0.069 ± 0.32; to VLSCCIPKKNSYWTVTDQPC, 8.266 ± 0.033.

VLSSRSEDTGQACEVIICVV: the amyloid nucleation score was 0.693 ± 0.34. Then VLVDTSDRWLMARWLGVPKP, with 4.79 ± 0.084. Then VLVEGVQCYSENRTNT, with 1.49 ± 0.41; and VLVRS, with 0.157 ± 1; and VLVSVVRCDVVAAVRCVQM, with 3.56 ± 0.11.

For the substance VLVTRIEWMGESTCMSLVNY, the amyloid nucleation score was determined as 2.69 ± 0.12. Then VLVVSRA, with -0.514 ± 0.45.

In the case of VLYFLYGKWQKTQRSNRYLQ, the amyloid nucleation score is -0.674 ± 0.76.

The substance VLYHFEISA had an amyloid nucleation score of -0.011 ± 0.54.

The substance VLYLLKSSSFSTGVNSRCMR yielded an amyloid nucleation score of -0.256 ± 1.1.

For VLYSRVLDGRESTNLGRL, the amyloid nucleation score entry is “inactive”. Then VLYYTPRLSVERMGFHNMIY, with -0.46 ± 1; and VMGEKIWSAWYTRDDQLCGS, with 0.547 ± 0.36; and VMNDLILSKAVLGFELRLWG, with 4.23 ± 0.066. Then VMNSVHVFQYTSCCLILVGL, with 6.945 ± 0.062; and VMTSIVFNRVSWYFLIMFVW, with -0.987 ± 0.55; and VMVAYSLLGSRSSILLW, with 0.021 ± 0.32.

The substance VMYRRSACIEQDSYSNINCR yielded an amyloid nucleation score of 0.025 ± 0.29. Then VNAHLWYIFRVWDVKDRVVD, with -0.315 ± 0.74; and VNGSTMFQVMFWLRPVHVIE, with -0.119 ± 0.53. To VNIRGTHVLVRVYSQGRNRA belongs 8.528 ± 0.062; to VNTNPMVAVPGMYIYYRWFL, “inactive”; to VNVNMPWTEERSKSEMSNTW, 1.4 ± 0.37. VNVSGSGSVPY registered an amyloid nucleation score of 0.741 ± 0.27. To VNVYMYNYLLKHITKDRRST belongs 8.16 ± 0.031. To VNWEHVRIVELFYKGMSQMA belongs -0.549 ± 1. Substance VNWVGLSLKIRGYFTVSTWR returned an amyloid nucleation score of -0.141 ± 0.54. Then VPFCGNNCSHCVRMSRLGRS, with 0.719 ± 0.47.

As to VPLEYSRVI, the amyloid nucleation score was 2.15 ± 0.15. Regarding VPPSLLYLQTRDSPPEERMM, the amyloid nucleation score was determined as 0.374 ± 0.64. Then VPRFPA, with “inactive”. To VPRFVCTHVDLIFGGNGCTF belongs 4.91 ± 0.075. On to VPVSRILNLFFVLVTL, for which the amyloid nucleation score was determined as 6.45 ± 0.086. Then VQLDSSFLIM, with 1.02 ± 0.48; and VQYCFFCAHRDSFGFKHCF, with “inactive”; and VRCIE, with -0.282 ± 0.28. Then VRCLVRYYAVR, with -0.649 ± 0.79.

In turn, VRCRDENHVVELSGGEVPDS showed an amyloid nucleation score of 0.066 ± 1. To VRDDCARWK belongs 0.327 ± 0.45; to VRIFSVCYKHLMGHCSSSA, -0.398 ± 0.31; to VRIFWTVTLFDCRLLRWLSN, 0.045 ± 0.38.

VRKRNVFFSSSFSSQRSGNC came in with an amyloid nucleation score of -0.327 ± 0.63.

The substance VRLFLAIMVYVLHSHHRYAD showed an amyloid nucleation score of 0.978 ± 0.74. Then VRLFVFSKVKGLIMVNCSWK, with -1.35 ± 0.44.

In turn, VRLNDWMVHLND returned an amyloid nucleation score of 0.752 ± 0.35.

Turning to VRLNMFFSGEFCQGMQLWVS, the amyloid nucleation score result was “inactive”. To VRLRASDKCLNV belongs 1.59 ± 0.27; to VRLVNAVNRRTKIHDIYLRV, 0.664 ± 0.26. Then VRNSSV, with “inactive”; and VRPNSLRHILASLCFLGGEE, with 7.416 ± 0.032.

On to VRSISASLSAMIYR, for which the amyloid nucleation score is -0.925 ± 0.45. Then VRSVCRGTHFSK, with 0.711 ± 0.42; and VRTWISDSCSVYWSSRLA, with 5.06 ± 0.084; and VRVEERSVTAYRFMTKPAWW, with 4.88 ± 0.096.

For VRWAKNNRMTLYLKITLRAK, the amyloid nucleation score was -0.951 ± 0.37. Turning to VRYGDRSGGLYLKRYFMLSF, the amyloid nucleation score result was “inactive”. To VSARGSWFLTTSAAC belongs -1.29 ± 1.1. With VSCCCFFGLTLAVLGHSEVS, the amyloid nucleation score was 3.55 ± 0.12. Then VSCYACREFMRLIVISGCLC, with 3.69 ± 0.042; and VSELGSGSFIFCTFLADFHM, with 6.3 ± 0.079; and VSFNGSVGMS, with -0.907 ± 1.1. VSGFFSDHA came in with an amyloid nucleation score of -1.06 ± 1.1. To VSGRDHTNNTGLYAWLHFCY belongs -0.493 ± 0.63.
